According to patent US6106823:

Biological target: CD3 (human)

lymphokine production (IL-2, ng/ml) by T cell clone 827 with CD3 + TPA: 10.6 ng/mL
Substance: anti-CD3 mAb SPV-T3b (antibody)
